According to paper PMC4116301:

Tests used:
[1] = target: Xenopus laevis Bonsai CENP-E (Xenopus laevis); test: single-molecule fluorescence brightness and photobleaching steps
[2] = target: microtubules (tubulin purified from cow brains) (cow) (UniProt Q6B856); test: co-sedimentation

| stoichiometry N [1] | Kd [2] [µM] | Substance |
| --- | --- | --- |
| 2 |  | Xenopus laevis Bonsai CENP-E |
|  | 0.024 | Xenopus laevis full-length CENP-E (natural protein) |
